In patent US20180369326A1 (LA JOLLA INSTITUTE FOR ALLERGY AND IMMUNOLOGY, published 2018):

How the values were obtained:
[1] = molecular target: T1, TANK-binding kinase 1 (TBK1), endogenous, mouse primary CD4+ T cells (mouse, UniProt Q9WUN2 1-729); assay: co-IP (anti-ICOS IP, immunoblot), mouse primary CD4+ T cells (FIG. 2a)
T1 construct: also called endogenous TBK1
T1 sequence (looked up): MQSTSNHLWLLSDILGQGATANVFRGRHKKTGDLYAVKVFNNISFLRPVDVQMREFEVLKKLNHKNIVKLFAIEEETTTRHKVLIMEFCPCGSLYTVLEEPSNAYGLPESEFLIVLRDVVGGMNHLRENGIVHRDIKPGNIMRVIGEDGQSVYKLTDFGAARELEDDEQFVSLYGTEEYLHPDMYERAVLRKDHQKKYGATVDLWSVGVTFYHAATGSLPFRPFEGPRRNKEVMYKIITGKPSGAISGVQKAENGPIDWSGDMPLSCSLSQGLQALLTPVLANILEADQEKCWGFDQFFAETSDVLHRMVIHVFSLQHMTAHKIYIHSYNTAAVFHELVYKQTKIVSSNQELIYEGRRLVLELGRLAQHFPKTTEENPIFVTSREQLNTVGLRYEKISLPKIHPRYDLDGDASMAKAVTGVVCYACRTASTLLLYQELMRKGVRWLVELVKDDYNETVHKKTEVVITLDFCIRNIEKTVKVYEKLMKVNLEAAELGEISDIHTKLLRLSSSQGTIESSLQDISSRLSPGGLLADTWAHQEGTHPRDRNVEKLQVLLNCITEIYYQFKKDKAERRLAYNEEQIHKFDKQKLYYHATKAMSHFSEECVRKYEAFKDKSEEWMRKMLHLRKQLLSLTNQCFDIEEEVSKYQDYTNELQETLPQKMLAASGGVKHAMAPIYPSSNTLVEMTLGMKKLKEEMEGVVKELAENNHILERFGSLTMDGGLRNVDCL
Excerpt: IPs or whole cell lysates (WCL) were immunoblotted with the indicated Abs. 5% WCL was used as input to control for IP Western. […] Jurkat T cells transfected with WT ICOS, mIProx, YF or tailless (TL) ICOS plasmids were stimulated with anti-CD3 plus −ICOS mAbs prior to IP and immunoblotting. […] In vitro activated primary mouse CD4⁺ T cells were stimulated with anti-CD3 plus the indicated costimulatory mAbs, and IP or WCL were subjected to immunoblotting with the indicated Abs. Shown are representative of three experiments.
The human leukemic Jurkat T cell line, JTAg, was previously described (Li, J et al. J Immunol 2013, 191(1): 200-207; Rolf J et al., J Immunol 2010, 185(7): 4042-4052) and the HEK 293T cell line was obtained from ATCC. These cell lines have not been recently STR profiled but tested negative for mycoplasma contamination. JTAg cells in logarithmic growth phase were transfected with plasmid DNAs by electroporation and incubated for 24 hours.

[2] = molecular target: T2, IKKϵ, endogenous, mouse primary CD4+ T cells (mouse, UniProt Q9R0T8 1-717); assay: anti-ICOS IP and immunoblot, mouse primary CD4+ T cells restimulated with anti-CD3 plus anti-ICOS (FIG. 14)
T2 construct: also called IKKi
T2 sequence (looked up): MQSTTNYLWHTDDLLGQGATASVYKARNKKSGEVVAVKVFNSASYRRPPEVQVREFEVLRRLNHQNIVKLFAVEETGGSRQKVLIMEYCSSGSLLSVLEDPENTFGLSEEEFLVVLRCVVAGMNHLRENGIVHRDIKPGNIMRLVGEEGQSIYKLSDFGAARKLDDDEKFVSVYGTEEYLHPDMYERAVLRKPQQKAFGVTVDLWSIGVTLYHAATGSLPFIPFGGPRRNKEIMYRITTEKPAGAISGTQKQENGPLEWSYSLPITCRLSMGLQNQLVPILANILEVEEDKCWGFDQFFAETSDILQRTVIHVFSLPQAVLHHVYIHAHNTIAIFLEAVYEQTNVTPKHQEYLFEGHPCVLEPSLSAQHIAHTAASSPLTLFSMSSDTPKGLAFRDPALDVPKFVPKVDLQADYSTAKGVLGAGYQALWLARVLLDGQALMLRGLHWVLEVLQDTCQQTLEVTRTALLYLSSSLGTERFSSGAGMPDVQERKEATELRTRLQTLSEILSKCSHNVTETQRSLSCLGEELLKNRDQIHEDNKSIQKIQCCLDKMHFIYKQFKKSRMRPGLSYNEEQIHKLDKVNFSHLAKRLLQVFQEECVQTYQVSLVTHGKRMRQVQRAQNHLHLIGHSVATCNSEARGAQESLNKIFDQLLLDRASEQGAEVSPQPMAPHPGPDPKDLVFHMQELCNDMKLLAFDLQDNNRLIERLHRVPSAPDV

[3] = molecular target: T3, TRAF2, endogenous, mouse primary CD4+ T cells (mouse, UniProt P39429 2-501); assay: as above
T3 sequence (looked up): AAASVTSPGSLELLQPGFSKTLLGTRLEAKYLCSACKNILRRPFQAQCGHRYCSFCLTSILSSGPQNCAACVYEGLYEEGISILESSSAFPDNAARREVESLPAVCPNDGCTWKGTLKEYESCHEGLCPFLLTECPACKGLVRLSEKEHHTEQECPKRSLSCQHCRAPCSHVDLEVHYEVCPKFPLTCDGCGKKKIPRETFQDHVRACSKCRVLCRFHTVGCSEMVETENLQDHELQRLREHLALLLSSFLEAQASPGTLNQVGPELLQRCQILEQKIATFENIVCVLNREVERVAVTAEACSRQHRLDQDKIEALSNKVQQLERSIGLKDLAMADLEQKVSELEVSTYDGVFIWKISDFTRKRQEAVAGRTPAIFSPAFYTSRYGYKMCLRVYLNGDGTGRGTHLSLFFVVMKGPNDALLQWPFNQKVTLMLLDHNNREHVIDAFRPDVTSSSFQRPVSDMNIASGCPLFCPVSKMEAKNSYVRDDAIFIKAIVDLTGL

[4] = molecular target: TRAF5, endogenous, mouse primary CD4+ T cells (mouse, UniProt P70191 1-558); assay: as above
[5] = molecular target: T4, TRAF3, endogenous, mouse primary CD4+ T cells (mouse, UniProt Q60803 1-567); assay: as above
T4 sequence (looked up): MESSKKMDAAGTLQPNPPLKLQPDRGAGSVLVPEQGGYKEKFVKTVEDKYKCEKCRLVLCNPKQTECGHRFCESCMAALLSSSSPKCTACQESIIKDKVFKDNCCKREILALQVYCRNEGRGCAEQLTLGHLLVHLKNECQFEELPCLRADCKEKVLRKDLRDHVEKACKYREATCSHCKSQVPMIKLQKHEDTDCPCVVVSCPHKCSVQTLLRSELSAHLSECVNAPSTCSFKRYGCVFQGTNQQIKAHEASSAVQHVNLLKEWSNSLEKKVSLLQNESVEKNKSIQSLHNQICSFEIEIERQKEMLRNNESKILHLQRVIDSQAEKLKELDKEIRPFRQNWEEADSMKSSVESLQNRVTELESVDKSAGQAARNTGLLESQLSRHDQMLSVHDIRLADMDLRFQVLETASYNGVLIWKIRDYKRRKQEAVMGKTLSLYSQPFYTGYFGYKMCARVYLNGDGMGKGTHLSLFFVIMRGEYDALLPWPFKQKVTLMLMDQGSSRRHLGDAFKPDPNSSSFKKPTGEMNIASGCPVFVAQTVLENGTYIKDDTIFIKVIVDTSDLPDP

[6] = molecular target: p85α, the regulatory subunit of PI3K, endogenous, mouse primary CD4+ T cells (mouse, UniProt P26450 2-724); assay: co-IP (anti-ICOS IP, immunoblot), mouse CD4+ T cells unstimulated or stimulated with anti-CD3, anti-ICOS or both (FIG. 6a)
Sequence of p85α, the regulatory subunit of PI3K, endogenous, mouse primary CD4+ T cells (P26450 2-724): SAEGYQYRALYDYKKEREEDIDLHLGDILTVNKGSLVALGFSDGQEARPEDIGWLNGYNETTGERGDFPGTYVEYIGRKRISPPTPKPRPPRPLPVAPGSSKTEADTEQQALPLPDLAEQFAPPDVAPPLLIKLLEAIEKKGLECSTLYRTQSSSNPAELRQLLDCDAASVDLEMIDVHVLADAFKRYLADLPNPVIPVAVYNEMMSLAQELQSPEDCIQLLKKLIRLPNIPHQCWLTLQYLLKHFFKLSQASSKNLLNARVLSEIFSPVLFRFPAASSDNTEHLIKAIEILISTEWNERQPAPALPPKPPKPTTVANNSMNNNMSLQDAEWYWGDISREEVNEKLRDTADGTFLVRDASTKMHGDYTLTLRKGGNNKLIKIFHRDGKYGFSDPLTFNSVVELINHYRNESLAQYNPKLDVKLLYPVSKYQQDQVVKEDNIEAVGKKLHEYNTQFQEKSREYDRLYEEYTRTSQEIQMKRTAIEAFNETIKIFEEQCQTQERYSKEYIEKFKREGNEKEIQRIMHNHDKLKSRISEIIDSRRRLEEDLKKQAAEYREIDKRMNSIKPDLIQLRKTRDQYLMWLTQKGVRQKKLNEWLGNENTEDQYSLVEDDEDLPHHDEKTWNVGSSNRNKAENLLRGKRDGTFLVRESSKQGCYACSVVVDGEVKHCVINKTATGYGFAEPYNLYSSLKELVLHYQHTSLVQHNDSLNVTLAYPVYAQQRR

Sequence of TRAF5, endogenous, mouse primary CD4+ T cells (P70191 whole entry): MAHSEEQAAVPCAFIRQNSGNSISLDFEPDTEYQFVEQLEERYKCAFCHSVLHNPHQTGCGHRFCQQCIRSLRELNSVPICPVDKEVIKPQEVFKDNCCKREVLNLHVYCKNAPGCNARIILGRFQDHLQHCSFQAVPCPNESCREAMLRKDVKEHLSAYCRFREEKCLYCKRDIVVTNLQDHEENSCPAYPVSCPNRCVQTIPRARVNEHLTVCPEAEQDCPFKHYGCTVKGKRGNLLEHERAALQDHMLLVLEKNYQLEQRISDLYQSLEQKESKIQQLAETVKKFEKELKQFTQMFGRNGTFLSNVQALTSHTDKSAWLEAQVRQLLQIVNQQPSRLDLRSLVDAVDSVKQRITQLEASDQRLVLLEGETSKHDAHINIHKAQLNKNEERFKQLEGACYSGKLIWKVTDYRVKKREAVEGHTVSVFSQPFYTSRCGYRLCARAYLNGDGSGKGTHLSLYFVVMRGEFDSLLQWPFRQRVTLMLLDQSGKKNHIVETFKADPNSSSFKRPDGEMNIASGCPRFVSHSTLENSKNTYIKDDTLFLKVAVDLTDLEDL

binding result [1]: binds
binding result [2]: no binding
binding result [3]: no binding
binding result [4]: no binding
binding result [5]: no binding
binding result [6]: binds
B1: ICOS, endogenous, of mouse primary CD4+ T cells (receptor)
chain: EINGSADHRMFSFHNGGVQISCKYPETVQQLKMRLFREREVLCELTKTKGSGNAVSIKNPMLCLYHLSNNSVSFFLNNPDSSQGSYYFCSLSIFDPPPFQERNLSGGYLHIYESQLCCQLKLWLPVGCAAFVVVLLFGCILIIWFSKKKYGSSVHDPNSEYMFMAAVNTNKKSRLAGVTS
